According to patent EP2620453B1:

Assays:
[1] = target: Stx1 (type-I Shiga toxin, recombinant holotoxin) (EHEC O157:H7) (UniProt P08026); test: ELISA, plates coated with Stx1, serum titer
[2] = target: Stx2 (type-II Shiga toxin, recombinant holotoxin) (EHEC O157:H7) (UniProt P09386); test: ELISA, plates coated with Stx2, serum titer

**Q.** What does the source list for “serum of the placebo control PBS group (BALB/c mice) (antibody)”?
**A.** titer of serum IgA and IgG [1]: < 2; titer of serum IgA and IgG [2]: < 2
